Measured values as given in patent US8183340B2, “GLP-1 pegylated compounds” (Eli Lilly and Company, priority 2005, dated 2012).
Where no end group is shown, it is not given here. PEG = not defined here

Legend:
Insulin = experiment: Pharmacodynamic analysis: stepped intravenous glucose infusion, insulin levels by immunoassay; assay type: in vivo, male cynomolgus monkeys; settings: for Insulin AUC, AUClast: stepped IV glucose infusion, mean
Protocol: A PEGylated GLP-1 compound of Formula I, wherein Xaa8 is Val; Xaa22 is Glu; Xaa33 is Ile; and Xaa46 is Cys-NH2 is administered by subcutaneous (SC) route at a dose of 0.01 mg/kg to male cynomolgus monkeys. A stepped intravenous glucose infusion is conducted immediately after SC administration of vehicle control (phosphate buffered saline) and 1, 5, and 7 days after SC administration of 0.01 mg/kg PEGylated GLP-1 analog. Stepped intravenous glucose infusion procedures are conducted in sedated monkeys after a 16-hour fast. Blood samples are drawn at 10 minutes prior to start of glucose infusion and immediately prior to start of glucose infusion to define baseline. A stepped infusion of glucose (20% dextrose) is then initiated at a rate of 10 mg/kg/min for 20 minutes followed by an infusion of 25 mg/kg/min for an additional 20 minutes. Blood samples are taken at 10-minute intervals throughout the infusion period. Insulin levels are determined by immunoassay. […] Representative data are shown below in Table 3.

[1] = Pharmacokinetic analysis after IV or SC administration to male SD rats (plasma, N-terminal specific radioimmunoassay); assay type: in vivo; settings: for AUC0-last / CL/F (total body clearance as a function of bioavailability) / Cmax (maximum observed plasma concentration) / Tmax (time of maximum observed plasma concentration) / t1/2 (elimination half-life): mean
Protocol: A PEGylated GLP-1 compound of Formula I, wherein Xaa8 is Val; Xaa22 is Glu; Xaa33 is Ile; and Xaa46 is Cys-NH2 is administered by intravenous (IV) or subcutaneous (SC) routes at a dose of 0.1 mg/kg to male SD rats. The animals (3 rats per group) are bled at various times between 0 and 192 hours after dosing. Plasma is collected from each sample and analyzed by N-terminal specific radioimmunoassay. Pharmacokinetic parameters are calculated using noncompartmental methods (WinNonlin Pro). By IV administration, the PEGylated GLP-1 analog has an elimination half-life of approximately 1.2 days while by SC administration the PEGylated GLP-1 analog has an elimination half-life of approximately 1.1 days. […] Prolonged elimination half-life, slow clearance and subcutaneous bioavailability (approximately 30%) are observed for the compound. Representative data are shown below in Table 1

[2] = Pharmacokinetic analysis after SC administration to male cynomolgus monkeys (serum, N-terminal specific radioimmunoassay); assay type: in vivo; settings: 0.01 mg/kg, mean
Protocol: A PEGylated GLP-1 compound of Formula I, wherein Xaa8 is Val; Xaa22 is Glu; Xaa33 is Ile; and Xaa46 is Cys-NH2 is administered by subcutaneous (SC) route at a dose of 0.01 mg/kg to male cynomolgus monkeys. The animals are bled at various times between 0 and 168 hours after dosing. Serum is collected from each sample and analyzed by N-terminal specific radioimmunoassay. Pharmacokinetic parameters are calculated using noncompartmental methods (WinNonlin Pro). Representative data are shown below in Table 2.

human GLP-1 receptor = target: T1, human GLP-1 receptor (Homo sapiens, UniProt P43220); experiment: In vitro activity assay, CRE-Luciferase in HEK-293 cells stably expressing the human GLP-1 receptor; assay type: cell-based; settings: 5 hours incubation
T1 construct: expressed in transfected cells
T1 sequence (P43220 24-463): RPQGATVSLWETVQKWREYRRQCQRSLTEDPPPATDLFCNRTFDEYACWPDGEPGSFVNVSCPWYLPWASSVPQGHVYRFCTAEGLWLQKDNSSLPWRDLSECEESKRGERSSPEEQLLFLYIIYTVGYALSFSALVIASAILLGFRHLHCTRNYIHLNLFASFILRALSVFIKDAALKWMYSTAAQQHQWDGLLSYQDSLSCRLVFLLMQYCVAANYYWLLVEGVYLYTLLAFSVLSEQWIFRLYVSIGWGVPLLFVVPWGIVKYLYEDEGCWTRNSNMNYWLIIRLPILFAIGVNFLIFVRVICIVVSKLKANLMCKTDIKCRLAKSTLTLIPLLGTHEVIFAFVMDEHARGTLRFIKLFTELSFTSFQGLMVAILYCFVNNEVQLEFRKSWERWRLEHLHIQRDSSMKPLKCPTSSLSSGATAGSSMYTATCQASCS
Protocol: “In vitro potency” as used herein, is the measure of the ability of a peptide to activate the GLP-1 receptor in a cell-based assay. In vitro potency is expressed as the “EC50” which is the effective concentration of compound that results in 50% activity in a single dose-response experiment. For the purposes of the present invention, in vitro potency is determined using a […] assay that employs HEK-293 cells that stably express the human GLP-1 receptor. These HEK-293 cells have stably integrated a DNA vector having a cAMP response element (CRE) driving expression of the luciferase gene. The interaction of a GLP-1 compound or a PEGylated GLP-1 compound with the receptor initiates a signal that results in activation of the cAMP response element and subsequent expression of luciferase. The EC50 values for the PEGylated GLP-1 compounds listed in Example 3 were determined using the luciferase assay described above. Relative in vitro potency values may be established by running Val8-GLP-1(7-37)OH or native GLP-1 as a control and assigning the control a reference value of 100%.
HEK-293 cells stably expressing the human GLP-1 receptor, using a CRE-Luciferase system, are seeded at 30,000 cells/well/80 μl low serum DMEM F12 medium into 96 well plates. […] Plates are placed in a Tri-lux luminometer and light output resulting from luciferase expression is calculated.

PEGylated GLP-1 compound of Formula I, wherein Xaa8 is Val; Xaa22 is Glu; Xaa33 is Ile; and Xaa46 is Cys-NH2: Formula I (SEQ ID NO: 1) peptide, one PEG molecule covalently attached to Cys45 and one to Cys46-NH2 (HVEGTFTSDVSSYLEEQAAKEFIAWLIKGGPSSGAPPPC(PEG)C(PEG)-NH2; reading uncertain)
Insulin AUC, AUClast (Insulin; Day 1 after SC 0.01 mg/kg): 30862 pM·min
Insulin AUC, AUClast (Insulin; Day 5 after SC 0.01 mg/kg): 27203 pM·min
Insulin AUC, AUClast (Insulin; Day 7 after SC 0.01 mg/kg): 28542 pM·min
duration of insulinotropic activity (Insulin; single SC injection of 0.01 mg/kg, relative to placebo, p<0.0001): at least 7 days
adverse clinical observations ([1]; IV or SC administration of 0.1 mg/kg): No adverse clinical observations
elimination half-life ([1]; IV, 0.1 mg/kg): approximately 1.2 days
AUC0-last ([1]; IV, 0.1 mg/kg): 52292 ng·h/mL
CL/F (total body clearance as a function of bioavailability) ([1]; IV, 0.1 mg/kg): 1.9 mL/h/kg
Cmax (maximum observed plasma concentration) ([1]; IV, 0.1 mg/kg): 2020 ng/mL
Tmax (time of maximum observed plasma concentration) ([1]; IV, 0.1 mg/kg): 0.08 h
t1/2 (elimination half-life) ([1]; IV, 0.1 mg/kg): 25.8 h
elimination half-life ([1]; SC, 0.1 mg/kg): approximately 1.1 days
subcutaneous bioavailability ([1]; SC, 0.1 mg/kg): approximately 30%
AUC0-last ([1]; SC, 0.1 mg/kg): 15423 ng·h/mL
CL/F (total body clearance as a function of bioavailability) ([1]; SC, 0.1 mg/kg): 6.5 mL/h/kg
Cmax (maximum observed plasma concentration) ([1]; SC, 0.1 mg/kg): 191 ng/mL
Tmax (time of maximum observed plasma concentration) ([1]; SC, 0.1 mg/kg): 24.0 h
t1/2 (elimination half-life) ([1]; SC, 0.1 mg/kg): 28.3 h
AUC0-last [2]: 7464.78 ng·h/mL
CL/F (total body clearance as a function of bioavailability) [2]: 1.06 mL/h/kg
Cmax (maximum observed serum concentration) [2]: 69.49 ng/mL
Tmax (time of maximum observed serum concentration) [2]: 48 h
t1/2 (elimination half-life estimate) [2]: 75.69 h
EC50 (human GLP-1 receptor): 0.36 ± 0.04 nM

PEGylated GLP-1 compound of Formula I, wherein Xaa8 is Val; Xaa22 is Glu; Xaa33 is Ile; and Xaa46 is Cys: Formula I (SEQ ID NO: 1) peptide, one PEG molecule covalently attached to Cys45 and one to Cys46 (HVEGTFTSDVSSYLEEQAAKEFIAWLIKGGPSSGAPPPC(PEG)C(PEG); reading uncertain)
EC50 (human GLP-1 receptor): 0.22 ± 0.03 nM
